Assay: yeast display, Sf9 membrane polyspecificity reagent, FACS + sequencing; frameworks hold sequencing errors
Summary of the method: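 Synthetic nanobody libraries on Saccharomyces cerevisiae BJ5465 were galactose-induced for 36–48 hours, stained 1 hour at 4 °C with 10% biotinylated, detergent-solubilized Sf9 membrane reagent and enriched on streptavidin microbeads. FACS then separated cells into low and high (top ~1%) gates by anti-HA (expression) and streptavidin (reagent binding) fluorescence. Genes were colony-PCR amplified, MiSeq 2 × 250 sequenced and CDR-length filtered. A clone's polyreactivity label is that of its gate of origin.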

Row | Sequence | polyreactivity (PSR sort gate)
1 | QVQLVESVVCLVQAGGSLRLSCAASGSIFRSYAMGWYRQAPGKERELVASISRRGGSTYYADSVKGRFTISRDNAKNTVYLQMNSLKPEDTAVYYCAAVGYNSRVSTTPSEMYYWGQGTQVTVSS | high polyreactivity
2 | QVQLVESGGGLVQAGGSLRLSCAASGRIFILNTMGWYRQAPGKERELVAGISYSGSTYYADSVKGRFTISRDNAKNTVYSQMNSLKPVDTAVYYCAADYDAAWYNDGYYYWGQGTQVTVSS | low polyreactivity
3 | QVQLQDSGGGLVQAGGSLRLSCAASGYIFGSGSMGWFRQAPGKERELVATINNGSSTYYADSVKGRFTISRDNAKNTVYLQMNSLKPEDTAVYYCGVFLYRLTFFYYWGQGNQVTVSS | high polyreactivity
4 | QVQLVESGGGLVQAGGSLRLSCAASGRIFTLYDMGWYIQAPGKERELVAAISNSAGSTYYADSVKGRFTISRDNAKNTVYLQMNSLKPEDTAVYYCAAELWSWWGSRDYWGQGTQVTVSS | high polyreactivity
5 | QVQLVESGGGLVQAGGSLRLSCAASGNIFDLYARGWSRQAPGKERELVAAISASGGRTYYADSVKGRFTISRDNAKNTVYLQMNSLKPEDTAVYYCAAVASYGTDFYYWGQGTQVTVSS | high polyreactivity
6 | QVELVESGGALVQAGGSLSLSCAASGIIFSIYAMGWDRQAPGKERELVAAITYSGGRTYYADSVKGRFTISRDNAKNTVYLQMNSLKPEDTAVYYCAAVGYGEYYWGQGTQVTVSS | high polyreactivity
7 | QVQLVESAGGLVQAGGSLRLSCPASGRIFSIYGMGWYRQAPGKERELVAVISGSVGITYYADSVKGRFTISRDNAKNTVYLQMNSLKPEDTAVYFCNAKVRRRKYDYWGQGTQVTVSS | high polyreactivity
8 | QVQLVESGGGLVQAGGSLRLSCAASGSIFFRNAMGWYRQAPGKERELVASITSGGSTYYADSVKGRFTISRDNAKNTVYLLMNSLKPEDTAVFYCAARLWHLSYAGQGGDYWGQGTQVTVSS | low polyreactivity
9 | QVHLVESCGGLVQAGGSLRLSCAASGSTIETYAMGWNRQAPGKDREMVATISLSGGRTYYADSVKGRFTISRDYAKNTVYLQMNSLKPEDTEVYYCNADGYGNVGGGDSWGQGTQVTVSS | low polyreactivity
10 | QVQLVESGGGLVQAGGSLRLSCAASGRIFSYNAMGWYRQAPGQERELVASISGRGVITYYADSVKGRFTISRDNAKNTVYLQMNSLKPEDTAVYYCNARYIYTRPRPRNYWGQGTQVTVSS | high polyreactivity
11 | QVQLVESGGGLVQAGGSLLLSCAASGTTFDRNAMGGYRQAPGKEREIVDAIRFGGGSTNYADSVKGRFTISRDNAKNTVYLLMNSLKPEDTAVYYCNAERIWRYKYGYDYWGQGTQVTVSS | high polyreactivity
12 | QVQHVESGGGLVQAGGSLRLSCAASGSIFTSYAMGWSSQAPGKERELVAAITSTGGSTYYADSVKGRFTISRDNAKNTVYLQMNSLKPEDTAVYYCNADGGTPYDYWGQGTQVTVSS | low polyreactivity
13 | QVQLVDSGGGLVQAGGSLSLSCAASGSTFGYYSMGWYRESPGKERELVAAITWSGDSTYADSVKGRFTISRDNAKNTVYLQMNSLKPEDTAVYYCARRGFLGHWPRPSYDYWGQGTQVTVSS | low polyreactivity
14 | QVQLVESGGGLVQAGGSLRLSCAASGSIFWGYAMGWYRQAPGKERELVAAIRNGGSTNYADSVKGRFTISRDNAKNTVYLQMNSLKPEDTAVYYCAKYYYYLRSARKYDYWGQGTQVTVSS | high polyreactivity
15 | QVQLVESGGGLVQAGGSLRLSCAASGFTFSVNAMGWYRQAPGKERELVAAISSRGGSTYYADSVKGRFTISRDNAKNTVYLQMNSLKPEDTAVYYCAKYPFYRSRHLGYWGQGTQVTVSS | high polyreactivity
16 | QVQLVESGGGLVQAGASLRLSCAASGGILRQNTMGWYRQAPGKERELVAAISSSGGRTYYADSVKGRFTISRDNAKNTVYLQMNSLKPEDTAVYYCNVPAKRYPYYIRQSTVSPGNYWGQGTKVTVSS | high polyreactivity
17 | QVQLVESGGGLVQAGGSLRLICAASGGTFGRNAMGWYRQAPGKERELVATITRRGGSTYYADSVKGRFTISRDNAKNTVYLQMNSLKPEDTAVYYCNALVTTTPRYDYWGQGTQVTVSS | high polyreactivity
18 | QVQLVESGGGLVQAGGSLRLICAASGNTFNFYAMGSYRQAPGKERELVAGISGSNTYYADSVKGRFTISRDNAKNTVYLQMNSLKPEDTAVYYCAKRAIWRYGYWGQGTQVTVSS | high polyreactivity
19 | QVQLVESGGGLVQAGGSLRLSCAASGSIFISYAMGWYRQAPGKERELVAAISSGGSTNYADSVKGRFTISRDNAKNTVYLQMNSLKPEATAVYYCAADGWLWSFTGDGWWFDYWGQGTQVTVSS | low polyreactivity
20 | QVQLVESGGGLVQAGGSLRLSCAASGFIVTANGMGWDRQAPGQERELVASISRRGGSTYYADSVKGRFTISRDNAKNTVYLQMNSLKPEDTAVYYCAARFYQEWGQGTQVTVSS | high polyreactivity
21 | QVQLVESGGGLVQAGGSLRLSCAASGRIFPDYDMGWYRQAPGKERELVASISTRGGSTYADSVKGRFTISRDNAKNTVYLQMNSLKPEDTAVYYCATDGWKQSAYDYWGQGTQVTVSS | low polyreactivity
22 | QFQLVESGGGLVQAGGSLRLSCAASGSIFDSYYMGWYRQAPGKEREMVAAITSGGSTNYADSVKGRFTISRDNAKNTVYLQMNSLKPEDTAVYYCAAYYWYPVYYGYEYWGQGTQVTVSS | low polyreactivity

Row | Sequence | polyreactivity (PSR sort gate)
23 | QVQLVESGGGLVQAGGSLRLSCAASGRILFGYAMGWYRQAPGKERELVADITSTGSTNYADSVKGRFTISRDNAKNTVYLQMNSLKPEDTAVYYCNARRESYYQRYRVDYWGQGTQVTVSS | low polyreactivity
24 | QVQLVESGGGLVHAGCSLRLSCAASGLIFGSYSMGWYRQAPGKERELVAAISRSGGSTYYADSVKGRFTISRDNAKNTVYFLMNSLKPEDTAVYYCAARGYPLGIGRIKRNYWGQGKQVTVSS | high polyreactivity
25 | QVQLLDSGGGLVQAGGSLRLSCAASGSTISRNAMGWYRQAPGKERELVAAITSKGDSSYYADSVKGRFTISRDNAKNTVYLQMNSLKPEDTAVYYCAKDGVPAQDIGMDYWGQGTQVTVSS | low polyreactivity
26 | QVQLVESGGGLVQAGGSLRLSCAPSGFTFSYNAMGWYRQAPGKERELVAAISNSGGSTYYADSVKGRFTISRDNAKYTVYLQMNSLKPEDTAVYYCAADVAQVGYQVGVSEIYPGYEYWGQGTQVTVSS | low polyreactivity
27 | QVQLVESGGGLVQAGGSLRLSCAASGFTFSYYAMGWYRQSPGKERELVASISRSGNTYYADSVKGRFTISRDNAKNTVYLQMKSLKPEDTAVYYCAAKRKSYYSYNFDYWGQGTQVTVSS | high polyreactivity
28 | QVQLVESGGGLVQAGGSLRLSCAASGRTFDYNAMGWYRQAPGKERELVAAISSSGGSTYYADSVKGRFTISRDNAKNTVYLQMNSLKPEDTAVYYCDKRRNLWGYEYDSWGQGTQVTVSS | high polyreactivity
29 | QVQHVESGGGLVQAGGSLRLSSAASGNTINSNAMGWYRQSPGKEREFVAAISGSGSSTYYADSVKGRFTISRDYAKNTVYLQMNSLNPEDTAVYYCAARWGYFGSFDYWGQGTQVTVSS | high polyreactivity
30 | QVQLVESGGGLVQAGGSLRLSCAASGFTFVYYAMGWYRQAPGKEREFVATISSRGDSTYYADSVKGRFTISRDNAKNTVYLQMNSLKPEDTAVYYCAADYDRKTRYGYLGQGTQVTVSS | low polyreactivity
31 | QVQLVESGGGLVQAGGSLRLSCAASGLTFGGNAMGWYRQAPGKERELVAGISWSGGNTNYADSVKGRFTISRDNAKNTVYLQMNSLKPEDNAVYYCNKATNLSGGYDSWGQGTQVTVSS | low polyreactivity
32 | QVQLVESGGGLVQAGCSLRLSCAASGRIFHLYAMGWYTQAPGKERELVAAITGRGGSTYYADSVKGRFTISRDNAKNTVYLQINCLKPEDTAVYYCASYEFGFLRYYSGRSYYYWGQGTQVTVSS | high polyreactivity
33 | QVQLVESGGGLVQAGGSLRLSCAASGSTFSKYTMGWYRQAPGKERELVAAISVSVGRTYYADSVKGRFTISRDNAKNTVYLQMNSLKPEDTAVYYCAAAYSGLYYWGQGTQVTVSS | high polyreactivity
34 | QVQLVESGGGLVQAGGSLRLSCAASGSIFRAYAMGWYRQAPGKERELVAAISIGGRTYYADSVKGRFTISRDNAKNTVYLQMNSLKPEDTAVYYCAAVRSYVKGGMYYWGQGTQVTVSS | low polyreactivity
35 | QVQLVESGGGLVQAGCSLRLSCAASGSIFARYAMGWSRQAPGKERELVAAINSTVSTNYADSVKGRFTISRDNAKNTVYLQMNSLKTEDTAVYYCAVDIVRGGRDSWGQGTQVTVSS | low polyreactivity
36 | QVQLVESGGGLVQAGGSLRLSCAASGSIFSYYTMGWYRQAPGQERELVAAISRRGGRTYYADSVKGRFTISRDNAKNTVYLQMNSLKPEDTAVYYCAAEWAGWNNEMDYWGQVTQVTVSS | high polyreactivity
37 | QVQLVESGGGLVQAGGSLRLSCAASGRTFWNYAMGWYRQAPGKEREMVAVIRFSDGSTYYADSVKGRFTISRDNAKNTVYLQMNSLKPEDTAVYYCAAKGPRRWGSGFDYWGQGTQVTVSS | low polyreactivity
38 | QVQQQESGGGLVQAGGSLRLSCAASGTIFQLTVMGRYRQAPGQERELVASIDYGGNTNYADSVNGRFTISRDNAKNTVYLQMNSLKPEDTAVYYCAASSDSWTTHPYWGQGTQVTVSS | low polyreactivity
39 | QVQLVESGGCLVQAGGSLRLSCAASGRIFTTNAMGWYRQAPGKERELVAAITYSGGTTYYADSVKGRFTISRDNAKKTVYLQMNSLKPEDTAVYYCAADVKFSTPYDYWGQGTQVTVSS | low polyreactivity
40 | QVQLVESGGGLVQAGGSLRLSCAASGIISGDYALGWYRQAPGKERELVARITSGDSTNYADSVKGRFTISRDNAKNTVYLQMNSLKPEDTAVYYCAADRVWAYWTYGYWGQGTQVTVSS | low polyreactivity
41 | QVQLVESGGGLVQAGGSLRLSCAASGSIFTGYAMGWYRQAPGKERELVAAISNSGTSTYYADSVKGRFTISRDNAKNTVYLQMNSLKPEDTAVYYCNTVGHRWLSDDDYWGQGTQVTVSS | low polyreactivity
42 | QVQHVESGGGLVQAGGSLRLSSAASGSIIGYYAMGWYRQAHGKERELVAAITWSGGRTYYADSVKGRFTISRDNAKNTVYFQMNSLKPEDTAVYYSNAANSRSAYYNWGHGTQVTVSS | high polyreactivity
43 | QVQLVESGGGLVQAGGSLRLSCAASGFIFGSNAMGWYRQAPGQERELVAAIDSSGGRTNYADSVKGRFTISRDNAKNTVYLQMNSLKPEDTAVYYCNVYRWSQLFEYDYWGQGTQVTVSS | high polyreactivity

— the nanobody polyreactivity screen of Harvey et al. (2022)
